# Source: article PMC9985635
# Target: p65 (UniProt Q04206)
# Assay: co-immunoprecipitation, immunoblot
# Details: reference: wild-type RB; sites S249,T252
substance,measurement,value
RB (retinoblastoma protein) (from UniProt P06400) RB S249A/T252A,binding against the reference,weaker
